How the values were obtained:
[1] = test system: pretreated wheat straw (PWS); test: Supplementation of CF-416 whole cellulase broth with single purified enzymes, saccharification of pretreated wheat straw; format: biochemical; conditions: 0.4% single enzyme added to 0.5% CF-416 whole cellulase broth base; for Fold Improvement Over Whole Cellulase Broth Tested on PWS: 74 g/L glucan, pH 5.0, 55° C., 50 μM copper
Method: (§1) In this Example, M. thermophila-produced and purified GH61a, GH61p, GH61f, GH61n, CBH1a, CBH2b, AXE3, FAE, and Xyl3, were used to supplement the activity present in culture broths (i.e., “whole broth cellulase base”) of the M. thermophila strain CF-416 prepared using standard methods known in the art. The broth cellulase base was fixed to 0.5% protein and the single purified enzyme was added at 0.4% (wt added protein/wt glucan) to the saccharification reactions. The whole cellulase broth base and individual enzymes were characterized by standard BCA assays for total protein quantification.
(§2) The saccharification reactions were carried out at 74 g/L glucan load of pretreated wheat straw (PWS) or pretreated corn stover (PCS) at pH 5.0, 55° C. at 950 rpm in the presence of 50 μM copper in high throughput (HTP) 96 deep well plates. Glucose analysis was carried out by the glucose oxidase assay as described above. In each case, the fold improvement was calculated using the formula Fold Improvement=[Total Glucose Production with addition of 0.4% single enzyme to the whole cellulase broth base]/[glucose production from the 0.5% whole cellulase broth base]. In this Table, the fold improvements were ranked from 0 to 3; fold improvements less than 1.2× are indicated by “0,” fold improvements of >1.2 to <1.5 are indicated by “1,” fold improvements of ≧1.5× to <1.7× improvements are indicated by “2,” and fold improvements ≧1.7 are indicated by “3.”

[2] = test system: pretreated corn stover (PCS); test: Supplementation of CF-416 whole cellulase broth with single purified enzymes, saccharification of pretreated corn stover; format: biochemical; conditions: 0.4% single enzyme added to 0.5% CF-416 whole cellulase broth base; for Fold Improvement Over Whole Cellulase Broth Tested on PCS: 74 g/L glucan, pH 5.0, 55° C., 50 μM copper
Method: as §1, §2

Row | Molecule | Fold Improvement Over Whole Cellulase Broth Tested on PWS [1] | Fold Improvement Over Whole Cellulase Broth Tested on PCS [2] | improvement over whole cellulase broth on PWS, in words [1] | improvement over whole cellulase broth on PCS, in words [2]
1 | GH61n: M. thermophila GH61n (SEQ ID NO:62; alternative SEQ ID NO:64) (protein, listed as Myceliophthora thermophila) MTKNAQSKQGVENPTSGDIRCYTSQTAANVVTVPAGSTIHYISTQQINHPGPTQYYLAKVPPGSSAKTFDGSGAVWFKISTTMPTVDSNKQMFWPGQNTYETSNTTIPANTPDGEYLLRVKQIALHMASQPNKVQFYLACTQIKITGGRNGTPSPLVALPGAYKSTDPGILVDIYSMKPESYQPPGPPVWRG | 1 (fold improvements of >1.2 to <1.5) | 1 (fold improvements of >1.2 to <1.5) |  | 
2 | AXE3: wild-type M. thermophila acetylxylan esterase (SEQ ID NO:167) (protein, listed as Myceliophthora thermophila) MKLLGKLSAALALAGSRLAAAHPVFDELMRPTAPLVRPRAALQQVTNFGSNPSNTKMFIYVPDKLAPNPPIIVAIHYCTGTAQAYYSGSPYARLADQKGFIVIYPESPYSGTCWDVSSRAALTHNGGGDSNSIANMVTYTLEKYNGDASKVFVTGSSSGAMMTNVMAAAYPELFAAGIAYSGVPAGCFYSQSGGTNAWNSSCANGQINSTPQVWAKMVFDMYPEYDGPRPKMQIYHGSADGTLRPSNYNETIKQWCGVFGFDYTRPDTTQANSPQAGYTTYTWGEQQLVGIYAQGVGHTVPIRGSDDMAFFGL | 1 (fold improvements of >1.2 to <1.5) | 0 (fold improvements less than 1.2×) |  | 
3 | Xyl3: wild-type M. thermophila xylanase (SEQ ID NO:149) (protein, listed as Myceliophthora thermophila) MHSKAFLAALLAPAVSGQLNDLAVRAGLKYFGTALSESVINSDTRYAAILSDKSMFGQLVPENGMKWDATEPSRGQFNYASGDITANTAKKNGQGMRCHTMVWYSQLPSWVSSGSWTRDSLTSVIETHMNNVMGHYKGQCYAWDVINEAINDDGNSWRDNVFLRTFGTDYFALSFNLAKKADPDTKLYYNDYNLEYNQAKTDRAVELVKMVQAAGAPIDGVGFQGHLIVGSTPTRSQLATALQRFTALGLEVAYTELDIRHSSLPASSSALATQGNDFANVVGSCLDTAGCVGVTVWGFTDAHSWIPNTFPGQGDALIYDSNYNKKPAWTSISSVLAAKATGAPPASSSTTLVTITTPPPASTTASSSSSATPTSVPTQTRWGQCGGIGWTGPTQCESPWTCQKLNDWYWQCL | 1 (fold improvements of >1.2 to <1.5) | 0 (fold improvements less than 1.2×) |  | 
4 | EG1b: Wild-type EG1b endoglucanase (SEQ ID NO:110) (protein, listed as Myceliophthora thermophila) MGQKTLQGLVAAAALAASVANAQQPGTFTPEVHPTLPTWKCTTSGGCVQQDTSVVLDWNYRWFHTEDGSKSCITSSGVDRTLCPDEATCAKNCFVEGVNYTSSGVETSGSSLTLRQFFKGSDGAINSVSPRVYLLGGDGNYVVLKLLGQELSFDVDVSSLPCGENAALYLSEMDATGGRNEYNTGGAEYGSGYCDAQCPVQNWNNGTLNTGRVGSCCNEMDILEANSKAEAFTPHPCIGNSCDKSGCGFNAYARGYHNYWAPGGTLDTSRPFTMITRFVTDDGTTSGKLARIERVYVQDGKKVPSAAPGGDVITADGCTSAQPYGGLSGMGDALGRGMVLALSIWNDASGYMNWLDAGSNGPCSDTEGNPSNILANHPDAHVVLSNIRWGDIGSTVDTGDGDNNGGGPNPSSTTTATATTTSSGPAEPTQTHYGQCGGKGWTGPTRCETPYTCKYQNDWYSQCL |  |  | did not show any improvement | did not show any improvement
5 | GH61p: M. thermophila GH61p (SEQ ID NO:70; alternative SEQ ID NO:73) (protein, listed as Myceliophthora thermophila) MKLTSSLAVLAAAGAQAHYTFPRAGTGGSLSGEWEVVRMTENHYSHGPVTDVTSPEMTCYQSGVQGAPQTVQVKAGSQFTFSVDPSIGHPGPLQFYMAKVPSGQTAATFDGTGAVWFKIYQDGPNGLGTDSITWPSAGKTEVSVTIPSCIEDGEYLLRVEHTPLPTAPAAQNRARSSPSPAAYKATDPGILFQLYWPIPTEYINPGPAPVSC | 2 (fold improvements of ≧1.5× to <1.7×) | 3 (fold improvements ≧1.7) |  | greatest benefit
6 | CBH2b: wild-type M. thermophila CBH2b (SEQ ID NO:137) (protein, listed as Myceliophthora thermophila) MAKKLFITAALAAAVLAAPVIEERQNCGAVWTQCGGNGWQGPTCCASGSTCVAQNEWYSQCLPNSQVTSSTTPSSTSTSQRSTSTSSSTTRSGSSSSSSTTPPPVSSPVTSIPGGATSTASYSGNPFSGVRLFANDYYRSEVHNLAIPSMTGTLAAKASAVAEVPSFQWLDRNVTIDTLMVQTLSQVRALNKAGANPPYAAQLVVYDLPDRDCAAAASNGEFSIANGGAANYRSYIDAIRKHIIEYSDIRIILVIEPDSMANMVTNMNVAKCSNAASTYHELTVYALKQLNLPNVAMYLDAGHAGWLGWPANIQPAAELFAGIYNDAGKPAAVRGLATNVANYNAWSIASAPSYTSPNPNYDEKHYIEAFSPLLNSAGFPARFIVDTGRNGKQPTGQQQWGDWCNVKGTGFGVRPTANTGHELVDAFVWVKPGGESDGTSDTSAARYDYHCGLSDALQPAPEAGQWFQAYFEQLLTNANPPF | 1 (fold improvements of >1.2 to <1.5) | 1 (fold improvements of >1.2 to <1.5) |  | 
7 | CBH1a: wild-type M. thermophila CBH1a (SEQ ID NO:128) (protein, listed as Myceliophthora thermophila) MYAKFATLAALVAGAAAQNACTLTAENHPSLTYSKCTSGGSCTSVQGSITIDANWRWTHRTDSATNCYEGNKWDTSWCSDGPSCASKCCIDGADYSSTYGITTSGNSLNLKFVTKGQYSTNIGSRTYLMESDTKYQMFQLLGNEFTFDVDVSNLGCGLNGALYFVSMDADGGMSKYSGNKAGAKYGTGYCDSQCPRDLKFINGEANVENWQSSTNDANAGTGKYGSCCSEMDVWEANNMAAAFTPHPCTVIGQSRCEGDSCGGTYSTDRYAGICDPDGCDFNSYRQGNKTFYGKGMTVDTTKKITVVTQFLKNSAGELSEIKRFYVQNGKVIPNSESTIPGVEGNSITQDWCDRQKAAFGDVTDFQDKGGMVQMGKALAGPMVLVMSIWDDHAVNMLWLDSTWPIDGAGKPGAERGACPTTSGVPAEVEAEAPNSNVIFSNIRFGPIGSTVSGLPDGGSGNPNPPVSSSTPVPSSSTTSSGSSGPTGGTGVAKHYEQCGGIGFTGPTQCESPYTCTKLNDWYSQCL | 3 (fold improvements ≧1.7) | 1 (fold improvements of >1.2 to <1.5) |  | 
8 | GH61f: M. thermophila GH61f (SEQ ID NO:29) (protein, listed as Myceliophthora thermophila) MKSFTLTTLAALAGNAAAHATFQALWVDGVDYGAQCARLPASNSPVTDVTSNAIRCNANPSPARGKCPVKAGSTVTVEMHQQPGDRSCSSEAIGGAHYGPVMVYMSKVSDAASADGSSGWFKVFEDGWAKNPSGGSGDDDYWGTKDLNSCCGKMNVKIPADLPSGDYLLRAEALALHTAGSAGGAQFYMTCYQLTVTGSGSASPPTVSFPGAYKATDPGILVNIHAPLSGYTVPGPAVYSGGSTKKAGSACTGCESTCAVGSGPTATVSQSPGSTATSAPGGGGGCTVQKYQQCGGQGYTGCTNCASGSTCSAVSPPYYSQCV | 1 (fold improvements of >1.2 to <1.5) | 1 (fold improvements of >1.2 to <1.5) |  | 
9 | beta-xylosidase: wild-type M. thermophila beta-xylosidase (SEQ ID NO:164) (protein, listed as Myceliophthora thermophila) MFFASLLLGLLAGVSASPGHGRNSTFYNPIFPGFYPDPSCIYVPERDHTFFCASSSFNAFPGIPIHASKDLQNWKLIGHVLNRKEQLPRLAETNRSTSGIWAPTLRFHDDTFWLVTTLVDDDRPQEDASRWDNIIFKAKNPYDPRSWSKAVHFNFTGYDTEPFWDEDGKVYITGAHAWHVGPYIQQAEVDLDTGAVGEWRIIWNGTGGMAPEGPHIYRKDGWYYLLAAEGGTGIDHMVTMARSRKISSPYESNPNNPVLTNANTTSYFQTVGHSDLFHDRHGNWWAVALSTRSGPEYLHYPMGRETVMTAVSWPKDEWPTFTPISGKMSGWPMPPSQKDIRGVGPYVNSPDPEHLTFPRSAPLPAHLTYWRYPNPSSYTPSPPGHPNTLRLTPSRLNLTALNGNYAGADQTFVSRRQQHTLFTYSVTLDYAPRTAGEEAGVTAFLTQNHHLDLGVVLLPRGSATAPSLPGLSSSTTTTSSSSSRPDEEEEREAGEEEEEGGQDLMIPHVRFRGESYVPVPAPVVYPIPRAWRGGKLVLEIRACNSTHFSFRVGPDGRRSERTVVMEASNEAVSWGFTGTLLGIYATSNGGNGTTPAYFSDWRYTPLEQFRD |  |  | did not show any improvement | did not show any improvement
10 | FAE: wild-type M. thermophila ferulic acid esterase (SEQ ID NO:170) (protein, listed as Myceliophthora thermophila) MISVPALALALLAAVQVVESASAGCGKAPPSSGTKSMTVNGKQRQYILQLPNNYDANKAHRVVIGYHWRDGSMNDVANGGFYDLRSRAGDSTIFVAPNGLNAGWANVGGEDITFTDQIVDMLKNDLCVDETQFFATGWSYGGAMSHSVACSRPDVFKAVAVIAGAQLSGCAGGTTPVAYLGIHGAADNVLPIDLGRQLRDKWLQTNGCNYQGAQDPAPGQQAHIKTTYSCSRAPVTWIGHGGGHVPDPTGNNGVKFAPQETWDFFDAAVGAAGAQSPMT | 1 (fold improvements of >1.2 to <1.5) | 1 (fold improvements of >1.2 to <1.5) |  | 
